Consider 3 molecules from US10772928B2, “Modulation and detection of a neuronal alternative splicing regulatory network for treatment and diagnosis of neurological disorders” (The Governing Council of the University of Toronto, priority 2014, dated 2020).

In assay [1] the target is T1, nSR100 (Mus musculus, UniProt Q8BKA3).
T1 construct: host or cells: mouse N2A cells
T1 sequence (Q8BKA3 1-608): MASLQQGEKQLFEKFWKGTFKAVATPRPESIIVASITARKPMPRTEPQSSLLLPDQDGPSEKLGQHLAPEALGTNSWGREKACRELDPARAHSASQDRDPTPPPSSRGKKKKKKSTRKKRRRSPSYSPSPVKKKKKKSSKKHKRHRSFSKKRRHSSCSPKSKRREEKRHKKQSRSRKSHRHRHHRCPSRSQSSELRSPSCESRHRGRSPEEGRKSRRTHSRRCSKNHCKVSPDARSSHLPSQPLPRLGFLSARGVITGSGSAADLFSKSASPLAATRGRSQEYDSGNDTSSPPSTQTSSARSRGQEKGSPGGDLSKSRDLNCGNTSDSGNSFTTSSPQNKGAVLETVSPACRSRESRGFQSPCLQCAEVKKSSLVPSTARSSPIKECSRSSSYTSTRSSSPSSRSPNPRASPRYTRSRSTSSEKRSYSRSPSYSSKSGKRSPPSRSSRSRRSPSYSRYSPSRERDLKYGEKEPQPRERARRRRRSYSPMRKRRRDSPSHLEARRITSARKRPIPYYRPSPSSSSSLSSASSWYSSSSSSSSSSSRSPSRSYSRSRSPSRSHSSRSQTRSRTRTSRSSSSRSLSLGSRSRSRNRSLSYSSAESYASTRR
Kind of assay: AP-MS nSR100 interaction partners from mouse N2A cells (Table 5). The note with it: for AvgP (average of the SAINT scores) / MaxP (maximal SAINT score): bait Srrm4; for FoldChange between the prey Avg spectra of the bait and control purifications: bait Srrm4, 0.1 added to prevent division by 0; for AvgSpec (average number of spectra per replicate): bait Srrm4, 2 replicates; for Spectra (number of spectra for the prey in the purification of the bait): AP-MS; for SpecSum: bait Srrm4, sum of spectra over 2 replicates. It is filed as binding.
Text: By applying affinity purification coupled to mass-spectrometry (AP-MS), several interaction nSR100 partner proteins were detected that provide insight into mechanisms of post-translational regulation of nSR100 levels.

Assay [2] deals with T1, nSR100. Kind of assay: Regulation by nSR100: microexon inclusion level (PSI) by RNA-Seq in mouse N2A cells depleted of nSR100 (Table 2). It is filed as cell-based. The note with it: YES/NO. The text has this: A-H) Percent of neural-regulated exons within each length class that is affected at 15<|ΔPSI|<25 and |ΔPSI|>25 by (A) RBFOX1 knockdown in human neural precursor cells; (B) MBNL1 and MBNL2 double knockdown in human HeLa cells; (C) ESRP1 knockdown in human PNT2 cells; (D) nSR100/Srrm4 knockdown in mouse N2A cells; (E) Ptbp1 knockdown in mouse N2A cells; (F) Ptbp2 knockout in mouse cortex (P1 stage); (G) Ptbp2 knockout in mouse embryonic brain (18.5 days post-conception); and (H) Rbfox1 knockout. p values correspond to two-sided proportion tests of regulated versus non-regulated events. I) Expression of nSR100 in different isolated brain cell types (Zhang et al., 2014). Error bars indicate SEM. […]
An RNA-Seq analysis pipeline was developed to detect and quantify all AS event classes involving all hypothetically possible splice junctions formed by the usage of annotated and unannotated splice sites, including those that demarcate microexons. […]
A multi-module analysis pipeline was developed that uses RNA-Seq, expressed sequence tag (EST) and cDNA data, as well as gene annotations and evolutionary conservation, to assemble libraries of exon-exon-junctions (EEJs) for subsequent read alignment to detect and quantify AS events in RNA-Seq data. […] Alt3 or Alt5 events were quantified based on the fraction of reads supporting the usage of each alternative splice site. […]

Where [3] appears, read: bait Srrm4, biological replicate 1 (first number of the cell).
The mark [4] stands for this setting: bait Srrm4, biological replicate 2 (second number of the cell).

B1: Eif4a3 (protein, UniProt Q91VC3 1-411, looked up)
Eukaryotic initiation factor …: MAANATMATSGSARKRLLKEEDMTKVEFETSEEVDVTPTFDTMGLREDLLRGIYAYGFEKPSAIQQRAIKQIIKGRDVIAQSQSGTGKTATFSVSVLQCLDIQVRETQALILAPTRELAVQIQKGLLALGDYMNVQCHACIGGTNVGEDIRKLDYGQHVVAGTPGRVFDMIRRRSLRTRAIKMLVLDEADEMLNKGFKEQIYDVYRYLPPATQVVLISATLPHEILEMTNKFMTDPIRILVKRDELTLEGIKQFFVAVEREEWKFDTLCDLYDTLTITQAVIFCNTKRKVDWLTEKMREANFTVSSMHGDMPQKERESIMKEFRSGASRVLISTDVWARGLDVPQVSLIINYDLPNNRELYIHRIGRSGRYGRKGVAINFVKNDDIRILRDIEQYYSTQIDEMPMNVADLI
With B1, in the assay with nSR100 [1], the “AvgP (average of the SAINT scores)” value came to 0.99; the “MaxP (maximal SAINT score)” value was 1; the “FoldChange between the prey Avg spectra of the bait and control purifications” value (shortened to “FoldChange between the prey Avg spectra”) is 3.82; the “AvgSpec (average number of spectra per replicate)” value was 21. For the same molecule, the SpecSum with nSR100 [1] was 42. Also, the “Spectra (number of spectra for the prey in the purification of the bait)” value in the assay with nSR100 [1] (setting [3]) was 18. Further, in the assay with nSR100 [1] (setting [4]), the “Spectra (number of spectra for the prey in the purification of the bait)” value turned out to be 24.

B2: Dhx8 (protein, UniProt A2A4P0 1-1244, looked up)
ATP-dependent RNA helicase …: MAVAVAAAGVLMGSEPGPAEELAKLEYLSLVSKVCTELDNHLGINDKDLAEFVISLAEKNTTFDTFKASLVKNGAEFTDSLISNLLRLIQTMRPPAKPSTSKDPVVKPKTEKEKLRELFPVLCQPDNPSARTMLDEEDVKVAVDVLKELEALMPSAAGQEKQRDPEHRDRTKKKKRSRSRDRDRDRDRDRDRDRDRDRDRDKDRERDRDRERDRERDRERDHKRRHRSRSRSHSRTRERTKGKSRYRSRSRSQSPFKDRKDREKYGERNLDRWRDKHVDRPPPEEPAIGDIYNGKVTSIMQFGCFVQLEGLRKRWEGLVHISELRREGRVANVADVVSKGQRVKVKVLSFTGTKTSLSMKDVDQETGEDLNPNRRRNLVGETNEETSMRNPDRPTHLSLVSAPEVEDDSLERKRLTRISDPEKWEIKQMIAANVLSKEEFPDFDEETGILPKVDDEEDEDLEIELVEEEPPFLRGHTKQSMDMSPIKIVKNPDGSLSQAAMMQSALAKERRELKQAQREAEMDSIPMGLNKHWVDPLPDAEGRQIAANMRGIGMMPNDIPEWKKHAFGGNKASYGKKTQMSILEQRESLPIYKLKEQLVQAVHDNQILIVIGETGSGKTTQITQYLAEAGYTSRGKIGCTQPRRVAAMSVAKRVSEEFGCCLGQEVGYTIRFEDCTSPETVIKYMTDGMLLRECLIDPDLTQYAIIMLDEAHERTIHTDVLFGLLKKTVQKRQDMKLIVTSATLDAVKFSQYFYEAPIFTIPGRTYPVEILYTKEPETDYLDASLITVMQIHLTEPPGDILVFLTGQEEIDTACEILYERMKSLGPDVPELIILPVYSALPSEMQTRIFDPAPPGSRKVVIATNIAETSLTIDGIYYVVDPGFVKQKVYNSKTGIDQLVVTPISQAQAKQRAGRAGRTGPGKCYRLYTERAYRDEMLTTNVPEIQRTNLASTVLSLKAMGINDLLSFDFMDAPPMETLITAMEQLYTLGALDDEGLLTRLGRRMAEFPLEPMLCKMLIMSVHLGCSEEMLTIVSMLSVQNVFYRPKDKQALADQKKAKFHQTEGDHLTLLAVYNSWKNNKFSNPWCYENFIQARSLRRAQDIRKQMLGIMDRHKLDVVSCGKSTVRVQKAICSGFFRNAAKKDPQEGYRTLIDQQVVYIHPSSALFNRQPEWVVYHELVLTTKEYMREVTTIDPRWLVEFAPAFFKVSDPTKLSKQKKQQRLEPLYNRYEEPNAWRISRAFRRR
Consider B2, for which, in the assay with nSR100 [1], the “AvgP (average of the SAINT scores)” value came to 0.99; the “MaxP (maximal SAINT score)” value is on record as 1; the “FoldChange between the prey Avg spectra” value is recorded as 7.33; the “AvgSpec (average number of spectra per replicate)” value stood at 11. In the assay with nSR100 [1], this molecule yielded a SpecSum of 22. In the assay with nSR100 [1] (setting [3]), the “Spectra (number of spectra for the prey in the purification of the bait)” value turned out to be 8. The “Spectra (number of spectra for the prey in the purification of the bait)” value with nSR100 [1] (setting [4]) amounted to 14.

B3: Fip1l1 (protein, UniProt Q9D824 1-581, looked up)
Pre-mRNA 3'-end-processing …: MSAGEVERLVELSGGTGGDEEEEWLYGGPWDVHVHSDLAKDLDENEVERPEEENASANPPSGIEEEAAENGVAKPKVTETEDDSDSDSDDDEDDVHVTIGDIKTGAPQYGSYGTAPVNLNIKAGGRVYGNTGTKVKGVDLDAPGSINGVPLLEVDLDSFEDKPWRKPGADLSDYFNYGFNEDTWKAYCEKQKRIRMGLEVIPVTSTTNKITVQQGRTGNSEKEAALPSTKAEFTSPPSLFKTGLPPSRNSTSSQSQTSTASRKASSSVGKWQDRYGRAESPDLRRLPGAIDVIGQTITISRVEGRRRANENSNIQVLSDRSATEVDNNFSKPPPFFPPGAPPTHLPPPPFLPPPPTVSTAPPLIPPPGIPITVPPPGFPPPPGAPPPSLIPTIESGHSSGYDSRSARAFPYGNVAFPHLTSSAPSWPSLVDTTKQWDYYARREKDRDRDRERDRDRERERDRDRERERTRERERERDHSPTPSVFNSDEERYRYREYAERGYERHRASREKEERHRERRHREKEETRHKSSRSNSRRRHESEEGDSHRRHKHKKSKRSKEGKEAGSEPVPEQESTEAAPAE
Consider B3, for which the “Regulation by nSR100” value with nSR100 [2] is recorded as “NO (regulation may occur but does not meet a miminal threshold change of PSI≥10)”. For the same molecule, in the assay with nSR100 [1], the “AvgP (average of the SAINT scores)” value stood at 1; the “MaxP (maximal SAINT score)” value stood at 1; the “FoldChange between the prey Avg spectra” value was determined as 90; the “AvgSpec (average number of spectra per replicate)” value is on record as 9. This molecule also registered a SpecSum in the assay with nSR100 [1] of 18. For the same molecule, the “Spectra (number of spectra for the prey in the purification of the bait)” value with nSR100 [1] (setting [3]) was 8. In addition, the “Spectra (number of spectra for the prey in the purification of the bait)” value with nSR100 [1] (setting [4]) worked out at 10.
